This experiment concerns the target purified glutathione reductase (GR). Description: cell-based or functional assay.

For purified αBC, the GR activity in vitro (purified GR with purified αBC, compared to a BSA control; proteins added at a 1:4 molar ratio to GR) worked out at 18%.
